In publication PMC4919518 one finds Kd data, which are given here for one molecule.

What all share (assay): fluorescence polarization; 5 mM Mg2+; FP: 20 mM HEPES-KOH pH 7.5, 200 mM NaCl, 5 mM MgCl2, 0.01 mg/ml E. coli total tRNA, 0.01% NP-40, 10 pM probe, 25 C; EMSA: 20 mM HEPES-KOH pH 7.5, 200 mM NaCl, 5
(In general: Polarisation of emitted light reports the rotation of a fluorescent probe.)

Data set [1] has as its target T1, RsAgo R481A/T484A (Rhodobacter sphaeroides (ATCC 17025D-5), UniProt A4WYU7 1-777, R481A;T484A).
T1 sequence: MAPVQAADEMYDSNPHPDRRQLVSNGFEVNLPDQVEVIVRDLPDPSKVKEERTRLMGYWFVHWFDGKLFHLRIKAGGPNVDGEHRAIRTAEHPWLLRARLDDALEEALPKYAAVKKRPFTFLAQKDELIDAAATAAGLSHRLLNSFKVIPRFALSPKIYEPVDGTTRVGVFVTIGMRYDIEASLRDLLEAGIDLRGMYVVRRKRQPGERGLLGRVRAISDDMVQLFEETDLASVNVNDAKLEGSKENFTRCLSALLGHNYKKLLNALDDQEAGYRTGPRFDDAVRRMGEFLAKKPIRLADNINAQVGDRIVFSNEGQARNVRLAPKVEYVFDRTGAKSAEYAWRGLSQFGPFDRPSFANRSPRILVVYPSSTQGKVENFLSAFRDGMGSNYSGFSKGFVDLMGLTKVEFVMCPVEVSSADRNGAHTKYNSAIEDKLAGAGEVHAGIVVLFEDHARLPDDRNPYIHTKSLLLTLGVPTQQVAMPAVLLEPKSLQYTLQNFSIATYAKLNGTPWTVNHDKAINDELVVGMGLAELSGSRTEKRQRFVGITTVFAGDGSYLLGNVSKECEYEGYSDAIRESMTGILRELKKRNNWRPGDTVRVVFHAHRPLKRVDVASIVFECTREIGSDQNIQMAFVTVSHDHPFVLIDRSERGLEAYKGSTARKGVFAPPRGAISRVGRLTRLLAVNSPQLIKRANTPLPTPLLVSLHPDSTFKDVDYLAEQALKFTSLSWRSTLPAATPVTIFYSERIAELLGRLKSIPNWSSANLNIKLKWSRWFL

For data set [2], the target named is T2, RsAgo K506A (Rhodobacter sphaeroides (ATCC 17025D-5), UniProt A4WYU7 1-777, K506A).
T2 sequence: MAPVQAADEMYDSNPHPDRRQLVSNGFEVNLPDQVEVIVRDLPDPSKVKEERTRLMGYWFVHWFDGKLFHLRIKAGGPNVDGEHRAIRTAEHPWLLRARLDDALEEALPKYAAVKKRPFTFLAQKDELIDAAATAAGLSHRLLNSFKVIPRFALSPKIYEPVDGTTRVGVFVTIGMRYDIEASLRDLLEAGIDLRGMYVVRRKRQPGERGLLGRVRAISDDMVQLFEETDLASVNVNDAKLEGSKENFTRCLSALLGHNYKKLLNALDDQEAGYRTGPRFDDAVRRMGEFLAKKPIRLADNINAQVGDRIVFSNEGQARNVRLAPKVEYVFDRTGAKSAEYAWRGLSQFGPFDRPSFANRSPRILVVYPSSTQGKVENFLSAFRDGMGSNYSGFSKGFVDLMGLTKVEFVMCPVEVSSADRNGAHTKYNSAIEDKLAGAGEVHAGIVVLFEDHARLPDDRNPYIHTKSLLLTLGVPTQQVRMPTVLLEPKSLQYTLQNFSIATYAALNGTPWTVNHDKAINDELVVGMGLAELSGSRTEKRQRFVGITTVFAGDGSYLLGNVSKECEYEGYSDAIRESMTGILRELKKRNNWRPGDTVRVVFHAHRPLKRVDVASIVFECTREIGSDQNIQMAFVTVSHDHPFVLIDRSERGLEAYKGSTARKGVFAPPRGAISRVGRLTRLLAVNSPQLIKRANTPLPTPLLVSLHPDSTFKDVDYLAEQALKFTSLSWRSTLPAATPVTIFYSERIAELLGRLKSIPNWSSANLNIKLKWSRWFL

The target in data set [3] is T3, RsAgo WT (Rhodobacter sphaeroides (ATCC 17025D-5), UniProt A4WYU7 1-777).
T3 sequence: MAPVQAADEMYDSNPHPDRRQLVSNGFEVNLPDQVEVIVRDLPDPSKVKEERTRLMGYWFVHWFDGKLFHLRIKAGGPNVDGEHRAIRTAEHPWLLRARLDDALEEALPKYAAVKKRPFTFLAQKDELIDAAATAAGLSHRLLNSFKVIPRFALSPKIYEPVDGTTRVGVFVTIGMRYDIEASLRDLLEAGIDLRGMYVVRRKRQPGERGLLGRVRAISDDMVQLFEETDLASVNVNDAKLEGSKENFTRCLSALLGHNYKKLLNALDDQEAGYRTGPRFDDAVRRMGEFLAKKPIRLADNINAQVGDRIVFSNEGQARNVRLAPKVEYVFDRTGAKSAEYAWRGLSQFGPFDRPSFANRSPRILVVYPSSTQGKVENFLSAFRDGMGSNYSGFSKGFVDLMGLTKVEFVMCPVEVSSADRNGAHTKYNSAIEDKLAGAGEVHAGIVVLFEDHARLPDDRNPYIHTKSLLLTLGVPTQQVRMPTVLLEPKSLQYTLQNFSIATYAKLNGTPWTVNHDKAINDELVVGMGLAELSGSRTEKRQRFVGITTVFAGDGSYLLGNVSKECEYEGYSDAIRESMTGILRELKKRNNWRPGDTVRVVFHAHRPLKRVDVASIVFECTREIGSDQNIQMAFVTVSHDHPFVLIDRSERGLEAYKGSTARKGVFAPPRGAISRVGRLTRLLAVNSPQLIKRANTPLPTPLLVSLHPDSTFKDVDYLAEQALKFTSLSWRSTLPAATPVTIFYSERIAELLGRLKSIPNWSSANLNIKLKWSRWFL

In the case of UUACAACCUACUACCUCG (ssRNA, 5'-phosphate) [5'P-RNA (5'U-RNA), FAM], the Kd was 718 ± 36 nM in data set [1], 1030 ± 47 nM in data set [2] and 0.91 ± 0.06 nM in data set [3].

One may read the Kd as the equilibrium constant for the complex coming apart. Low readings indicate tighter binding, high ones weaker binding.
